# In PMC314469, “Protein Interaction Networks by Proteome Peptide Scanning” (PLoS Biology, 2004):
# Molecular target: Sho1 SH3 (SHO1_YEAST), P40073
# Test: SPOT array
# Sho1 SH3 (SHO1_YEAST), P40073, sequence (P40073 295-366): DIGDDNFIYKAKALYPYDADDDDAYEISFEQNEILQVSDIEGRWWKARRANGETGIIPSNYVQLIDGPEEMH
row,Binder,"normalised SPOT signal, Boehringer light units (BLU); mean over the file's lines of this peptide"
1,GRIPQLPNRDEMTA [1268-1281 protein kinase],39.3
2,"GSNPDLPNKSNLKF [307-320 "" Twinfilin A, an actin monomer sequestering protein""]",140
3,GSSPVSPDKRPSWK [66-79 vacuolar alpha mannosidase],60.3
4,GVYPSRPEKTYDYS,109
5,GYDPTDPNRPKVTK [1426-1439 Hypothetical ORF],158
6,GYDPTDPSRPRINE [1469-1482 Hypothetical ORF],119
7,HGVPVVPSREVTIN [440-453 protoporphyrinogen oxidase],139
8,HNSPVAPNRYAANL [84-97 chitin synthase 2],103
9,HPDPADPAKELELN [377-390 lysyl-tRNA synthetase],202
10,HSSPIAPSKAKRQR [64-77 Transcription factor (fork head domain)],201
11,HSTPVTPRRLFTSQ [171-184 protein required for Clb2 and Ase1 degradation],240
12,IAAPKKPRKPRQTK [241-254 RNA polymerase II mediator subunit],327
13,IAHPVRPHRAITMT [631-644 dual specificity protein phosphatase],112
14,IAYPFYPFKKLGRQ [32-45 Hypothetical ORF],59.4
15,IAYPGDPLRFHSHL [207-220 34kDa subunit of the tetrameric tRNA splicing endonuclease],174
16,IEVPQSPTKNRVKV [61-74 (putative) involved in DNA replication],141
17,IFDPQDPYRRAQQF [496-509 Hypothetical ORF],48.8
18,IFGPFGPMKEVKIL [144-157 nuclear shuttling protein with an RNA recognition motif],250
19,IFGPSFPFRSHIDV [170-183 Possible RNA binding protein. Homolog of Whi3.],182
20,IFPPLNPARTSLNS [172-185 homologous to Ssf2p;possibly involved in mating],87.7
21,IHSPRIPSKDEFIA,94.7

row,Binder,"normalised SPOT signal, Boehringer light units (BLU); mean over the file's lines of this peptide"
1,IIFPTSPTKLTFSN [112-125 Cell cycle-dependent filament between nuclei],125
2,IIFPYDPLKLGTHA [509-522 Weak similarity to Pta1p (pre-tRNA processing protein)],113
3,IIIPPIPSKHSLLK [171-184 Hypothetical ORF],352
4,IINPDTPHRRIFNQ [264-277 AP endonuclease],174
5,ILKPDIPLRNMLLR [138-151 Hypothetical ORF],159
6,ILLPPLPERAYIMD [459-472 Hypothetical ORF],242
7,ILSPGYPNKSFNNK [653-666 heat shock transcription factor],129
8,IMPPPKPFRHGLDS [517-530 Hypothetical ORF],8750
9,INQPSTPKKLKRKS [316-329 PLasmid Maintenance],141
10,IPTPSKPLKKRKKR [390-403 serine/threonine-rich membrane protein],86.1
11,IQHPFLPRKIPIIT [408-421 mitochondrial and cytoplasmic valyl-tRNA synthetase],164
12,"ISTPPPPPKMAIPA [390-403 "" type II PI(4)P5-kinase (PIP4,5 kinase) similar to human PIP5K-II""]",56.4
13,ITLPRRPAKKIQLG [41-54 Mitochondrial ribosomal protein MRPL36 (YmL36)],281
14,IVNPFIPRRPYSNV [859-872 Hypothetical ORF],530
15,KDHPYDPEKDSVLK [97-110 vacuolar ATPase V1 domain subunit F (14 kDa)],25.5
16,KFHPPEPYKGKGIY [187-200 Mitochondrial ribosomal protein MRPL6 (YmL6)],237
17,KFIPNKPYRQFNTW [339-352 gamma-aminobutyrate (GABA) transaminase (4-aminobutyrate aminotransferase)],60.6
18,KIMPPTPAKKVEFI [312-325 putative GTP-exchange protein],1220
19,KISPSAPSKDSFTK [350-363 nuclear pore protein],79.6
20,KKDPFPPPKDLLVQ [421-434 110 kDa subunit of the centromere binding factor CBF3],64.6
21,KKDPNAPKRRLSAY [21-34 11-kDa nonhistone chromosomal protein],152
